Laboratory results: paper doi:10.1101/2023.04.17.537135 (bioRxiv, 2023)

Legend:
Test in all cases: pull-down
[1] = molecular target: T1, His-tagged AHL10, non-mutated wild type (Arabidopsis thaliana, UniProt O22812 1-351)
T1 sequence (looked up): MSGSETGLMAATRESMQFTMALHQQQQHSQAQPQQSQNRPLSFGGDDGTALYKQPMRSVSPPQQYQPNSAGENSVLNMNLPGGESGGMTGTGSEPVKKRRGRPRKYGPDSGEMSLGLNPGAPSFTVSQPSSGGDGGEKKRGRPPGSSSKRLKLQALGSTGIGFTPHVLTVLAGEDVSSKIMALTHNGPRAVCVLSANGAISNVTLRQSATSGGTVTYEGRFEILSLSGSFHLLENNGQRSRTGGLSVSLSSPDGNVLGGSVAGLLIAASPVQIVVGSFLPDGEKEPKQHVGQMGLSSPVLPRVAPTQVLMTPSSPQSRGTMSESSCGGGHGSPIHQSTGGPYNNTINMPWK

[2] = molecular target: T2, His-tagged AHL10 S314D (phosphomimic) (Arabidopsis thaliana, UniProt O22812 1-351, S314D)
T2 sequence (looked up): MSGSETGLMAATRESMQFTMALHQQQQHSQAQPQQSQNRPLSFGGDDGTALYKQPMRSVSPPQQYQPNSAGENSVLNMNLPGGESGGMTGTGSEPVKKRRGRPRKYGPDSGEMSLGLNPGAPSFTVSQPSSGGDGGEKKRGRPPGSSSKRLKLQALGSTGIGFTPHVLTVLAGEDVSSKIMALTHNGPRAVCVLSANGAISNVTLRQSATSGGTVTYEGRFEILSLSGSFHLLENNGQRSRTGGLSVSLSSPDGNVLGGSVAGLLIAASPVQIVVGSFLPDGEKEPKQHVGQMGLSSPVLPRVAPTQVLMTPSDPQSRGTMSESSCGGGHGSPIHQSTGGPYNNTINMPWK

[3] = molecular target: T3, His-tagged AHL10 S313D (phosphomimic) (Arabidopsis thaliana, UniProt O22812 1-351, S313D)
T3 sequence (looked up): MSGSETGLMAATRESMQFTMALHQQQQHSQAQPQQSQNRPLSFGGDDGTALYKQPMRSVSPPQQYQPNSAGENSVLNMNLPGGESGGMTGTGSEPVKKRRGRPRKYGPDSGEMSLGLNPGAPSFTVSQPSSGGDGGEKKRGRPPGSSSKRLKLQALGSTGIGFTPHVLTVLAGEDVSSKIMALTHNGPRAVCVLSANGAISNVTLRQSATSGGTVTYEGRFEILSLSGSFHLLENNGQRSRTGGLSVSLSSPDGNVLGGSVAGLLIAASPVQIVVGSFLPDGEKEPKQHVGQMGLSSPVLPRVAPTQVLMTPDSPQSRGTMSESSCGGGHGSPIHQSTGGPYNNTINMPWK

Measured: binding result

B1: GST-tagged RRP6L1 C-terminal 337 amino acids (domain or fragment, Arabidopsis thaliana, UniProt Q0WVE8 301-637, looked up)
chain: YKRSYDVCMQLYEKELWTRDSYLHVYGVQTGNLNAVQLSIVAGLCEWRDRIARADDESTGYVLPNKTLFDIAKEMPIVVAQLRRLLKSKLPYLERNFDAVISVIRRSMQNAAAFEPVVQSLKDRRPETVVEMNIEPKIEKTDTGASASSLSLEKVCVDDSKKQSSGFGVLPLKRKLESDKTVVEKNIEPKIEKTGTEASASSLSSKKVCVDDSKKQSSGFGVLLSKRKFESDNKVKEEVKVSKSKPDKVIIVVDDDDDDDDDESYEQSTKAADALDRVSETPSKGSPSLTQKPKTCNTEVIVLDDDDDSESREDEDMRRRSEKHRRFMNMKRGFLNI
binds: all assays above

B2: GST-tagged RRP6L1 N-terminal 300 amino acids (domain or fragment, Arabidopsis thaliana, UniProt Q0WVE8 1-300, looked up)
chain: MRFDDPMDEFKRNRKMEEDSKKVIDVKVAESDKGFAKFGKAEVPFHIPTLTKPQEEYKILVDNANNPFEHVLLEKSEDGLRFIHPLEELSVMDFVDRNLSEMRPVKPLPLEETPFKLVEEVKDLEDLAAALQSVEEFAVDLEHNQYRTFQGLTCLMQISTRTEDYIVDIFKLWDHIGPYLRELFKDPKKKKVIHGADRDIIWLQRDFGIYVCNLFDTGQASRVLKLERNSLEFLLKHYCGVAANKEYQKADWRIRPLPDVMKRYAREDTHYLLYIYDVMRMELHTMAKEDEQSDSPLVEV
binds: all assays above
